In the supplement of paper PMC10567573:

B1: MLH1 (parent)
chain: YAHQMVRTDSREQKLDAFLQPLSK
B2: CAMK2D (parent)
chain: LLKHPNIVRLHDSISEEGFHYLVF

Variants of: B1
Test: protein stability index of a GFP-peptide fusion (GPS, HEK-293T) (PSI 1-6); higher = more stable
Conditions: c terminus: a fixed tail appended
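Further: lentivirally expressed fusions sorted by FACS into six bins by GFP to DsRed ratio, PSI derived from sequencing read proportions per bin multiplied by bin number.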

| Variant | protein stability index |
| --- | --- |
| K24E | 3.28 |
| K24C | 2.29 |
| K24D | 3.26 |
| K24F | 1.78 |
| K24G | 2.48 |
| K24L | 1.85 |
| K24I | 1.95 |
| K24W | 2.16 |
| L19P | 2.55 |
| L19I | 2.21 |
| L19D | 3.02 |
| L19V | 2.84 |
| L19N | 2.85 |
| L19E | 3.38 |
| L19R | 3.33 |
| L19G | 2.12 |
| L19K | 3.16 |
| L19Q | 3.02 |
| L19W | 2.42 |
| L19H | 3.12 |
| L19T | 3.02 |
| P21V | 2.48 |
| P21L | 2.16 |
| P21W | 2.4 |
| P21C | 2.2 |

| Variant | protein stability index |
| --- | --- |
| P21H | 2.57 |
| P21I | 2.57 |
| P21K | 2.42 |
| P21S | 3 |
| P21N | 2.4 |
| P21T | 2.21 |
| P21Q | 2.7 |
| P21M | 1.9 |
| P21D | 2.84 |
| P21Y | 1.71 |
| F18V | 3.15 |
| F18H | 3.29 |
| F18G | 2.79 |
| F18R | 3.17 |
| F18N | 3.15 |
| F18T | 3.36 |
| F18L | 2.4 |
| F18S | 3.52 |
| F18D | 3.79 |
| F18E | 3.12 |
| F18Y | 2.27 |
| F18W | 1.85 |
| F18C | 3.22 |
| F18Q | 3.55 |
| D16Q | 2.46 |

| Variant | protein stability index |
| --- | --- |
| D16V | 1.66 |
| D16I | 2.16 |
| D16A | 2.69 |
| D16S | 2.1 |
| D16L | 1.62 |
| D16K | 2.63 |
| D16N | 1.91 |
| D16W | 3.5 |
| D16C | 1.99 |
| D16G | 2.08 |
| D16Y | 1.57 |
| A17S | 2.57 |
| A17L | 1.85 |
| A17C | 2.15 |
| A17V | 3.02 |
| A17K | 3.29 |
| A17Q | 2.06 |
| A17N | 3.19 |
| A17P | 2.66 |
| A17M | 2.45 |
| A17I | 2.69 |
| A17E | 2.98 |
| A17W | 2.19 |
| A17F | 1.88 |
| A17D | 3 |

| Variant | protein stability index |
| --- | --- |
| A17R | 2.66 |
| S23P | 2.18 |
| S23N | 2.42 |
| S23H | 2.01 |
| S23T | 2.43 |
| S23R | 2.45 |
| S23W | 2.27 |
| S23D | 3.41 |
| S23E | 2.86 |
| S23A | 1.99 |
| S23F | 2.4 |
| S23G | 3.24 |
| S23Q | 2.7 |
| Q20D | 3.39 |
| Q20W | 2.99 |
| Q20Y | 1.88 |
| Q20R | 2.5 |
| Q20L | 2.53 |
| Q20C | 1.98 |
| Q20E | 2.51 |
| Q20A | 2.49 |
| Q20H | 2.78 |
| Q20V | 2.09 |
| Q20I | 2.07 |
| Q20F | 1.91 |

| Variant | protein stability index |
| --- | --- |
| Q20M | 2.45 |
| L15I | 2.17 |
| L15Q | 3.77 |
| L15W | 2.37 |
| L15H | 2.57 |
| L15N | 3.28 |
| L22P | 2.06 |
| L22N | 3.11 |
| L22M | 2.43 |
| L22C | 2.59 |
| L22I | 3.13 |
| L22K | 2.98 |
| L22G | 3.03 |
| L22R | 3.02 |
| L22A | 2.59 |
| L22T | 3.2 |
| L22D | 3.38 |
| L22S | 3.14 |
| L22H | 2.45 |
| L22F | 2.07 |
| L22E | 3.02 |
| L22Y | 2.03 |

Variants of: B2
Test: as above
Conditions: c terminus: a fixed tail appended

| Variant | protein stability index |
| --- | --- |
| L1S | 2.13 |
| L1D | 4.59 |
| L1H | 1.51 |
| L1Y | 1.96 |
| L1M | 2.61 |
| L1V | 2.25 |
| L1C | 1.97 |
| L1E | 2.23 |
| L1I | 3.14 |
| L1Q | 1.77 |
| L1T | 1.62 |
| L1F | 2.89 |
| L1N | 2.14 |
| L1K | 3.1 |
| L1P | 1.76 |
| K3G | 2.04 |
| K3N | 2.22 |
| K3C | 3.78 |
| K3P | 2.1 |
| K3M | 1.77 |
| K3F | 2.85 |
| K3E | 2.16 |
| K3R | 2.28 |

| Variant | protein stability index |
| --- | --- |
| K3L | 3.21 |
| K3H | 1.44 |
| K3I | 2.71 |
| K3A | 2.38 |
| K3D | 2.74 |
| L2Q | 1.76 |
| L2G | 2.37 |
| L2E | 2.04 |
| L2W | 3.25 |
| L2N | 3.63 |
| L2A | 2.92 |
| L2C | 2.36 |
| L2V | 2.86 |
| L2K | 3.35 |
| L2I | 3.93 |
| L2T | 1.94 |
| L2H | 1.44 |
| L2M | 1.77 |
| L2S | 1.56 |
| L2Y | 1.83 |
| L2D | 2.09 |
| L2P | 1.56 |
